Each binder was assayed against T1, Human CD137 ECD (human) (assay: Biacore SPR, vs parent H183/L072).
T1 construct: entry includes C-terminal His-tag and biotin acceptor peptide; also called human CD137 extracellular domain; 4-1BB
T1 sequence (chain, as listed by the source limits assumed): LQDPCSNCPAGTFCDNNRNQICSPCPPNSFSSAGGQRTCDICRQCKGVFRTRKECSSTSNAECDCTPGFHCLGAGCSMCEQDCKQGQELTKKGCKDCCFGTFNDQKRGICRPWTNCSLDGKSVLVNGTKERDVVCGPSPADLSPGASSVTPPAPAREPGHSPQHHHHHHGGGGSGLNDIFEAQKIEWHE

| Binder | fold change of affinity [fold] |
| --- | --- |
| H183/L072 VL K50G (antibody, name in Kabat numbering, V domains shown, Dual-Ig) VH: QVQLVESGGGLVQPGRSLRLSCAASGFTFSNAWMHWVRQAPGKGLEWVAQIKDKGNAYAAYYAPSVKGRFTISRDDSKNSIYLQMNSLKTEDTAVYYCHYVHYASASTVLPAFGVDAWGQGTTVTVSS VL: DIVMTQSPLSLPVTPGEPASISCQASQELVHMNRNTYLHWYQQKPGQAPRLLIYGVSNRFPGVPDRFSGSGSGTDFTLKISRVEAEDVGVYYCAQGTSVPFTFGQGTKLEIK | 0 |
| H183/L072 VL L27bE (antibody, name in Kabat numbering, V domains shown, Dual-Ig) VH: QVQLVESGGGLVQPGRSLRLSCAASGFTFSNAWMHWVRQAPGKGLEWVAQIKDKGNAYAAYYAPSVKGRFTISRDDSKNSIYLQMNSLKTEDTAVYYCHYVHYASASTVLPAFGVDAWGQGTTVTVSS VL: DIVMTQSPLSLPVTPGEPASISCQASQEEVHMNRNTYLHWYQQKPGQAPRLLIYKVSNRFPGVPDRFSGSGSGTDFTLKISRVEAEDVGVYYCAQGTSVPFTFGQGTKLEIK | 0.2 |
| H183/L072 VL K50W (antibody, name in Kabat numbering, V domains shown, Dual-Ig) VH: QVQLVESGGGLVQPGRSLRLSCAASGFTFSNAWMHWVRQAPGKGLEWVAQIKDKGNAYAAYYAPSVKGRFTISRDDSKNSIYLQMNSLKTEDTAVYYCHYVHYASASTVLPAFGVDAWGQGTTVTVSS VL: DIVMTQSPLSLPVTPGEPASISCQASQELVHMNRNTYLHWYQQKPGQAPRLLIYWVSNRFPGVPDRFSGSGSGTDFTLKISRVEAEDVGVYYCAQGTSVPFTFGQGTKLEIK | 0 |
| H183/L072 VL K50Q (antibody, name in Kabat numbering, V domains shown, Dual-Ig) VH: QVQLVESGGGLVQPGRSLRLSCAASGFTFSNAWMHWVRQAPGKGLEWVAQIKDKGNAYAAYYAPSVKGRFTISRDDSKNSIYLQMNSLKTEDTAVYYCHYVHYASASTVLPAFGVDAWGQGTTVTVSS VL: DIVMTQSPLSLPVTPGEPASISCQASQELVHMNRNTYLHWYQQKPGQAPRLLIYQVSNRFPGVPDRFSGSGSGTDFTLKISRVEAEDVGVYYCAQGTSVPFTFGQGTKLEIK | 0.2 |
| H183/L072 VL L27bI (antibody, name in Kabat numbering, V domains shown, Dual-Ig) VH: QVQLVESGGGLVQPGRSLRLSCAASGFTFSNAWMHWVRQAPGKGLEWVAQIKDKGNAYAAYYAPSVKGRFTISRDDSKNSIYLQMNSLKTEDTAVYYCHYVHYASASTVLPAFGVDAWGQGTTVTVSS VL: DIVMTQSPLSLPVTPGEPASISCQASQEIVHMNRNTYLHWYQQKPGQAPRLLIYKVSNRFPGVPDRFSGSGSGTDFTLKISRVEAEDVGVYYCAQGTSVPFTFGQGTKLEIK | 1.1 |
| H183/L072 VL L27bA (antibody, name in Kabat numbering, V domains shown, Dual-Ig) VH: QVQLVESGGGLVQPGRSLRLSCAASGFTFSNAWMHWVRQAPGKGLEWVAQIKDKGNAYAAYYAPSVKGRFTISRDDSKNSIYLQMNSLKTEDTAVYYCHYVHYASASTVLPAFGVDAWGQGTTVTVSS VL: DIVMTQSPLSLPVTPGEPASISCQASQEAVHMNRNTYLHWYQQKPGQAPRLLIYKVSNRFPGVPDRFSGSGSGTDFTLKISRVEAEDVGVYYCAQGTSVPFTFGQGTKLEIK | 0.4 |
| H183/L072 VL L27bH (antibody, name in Kabat numbering, V domains shown, Dual-Ig) VH: QVQLVESGGGLVQPGRSLRLSCAASGFTFSNAWMHWVRQAPGKGLEWVAQIKDKGNAYAAYYAPSVKGRFTISRDDSKNSIYLQMNSLKTEDTAVYYCHYVHYASASTVLPAFGVDAWGQGTTVTVSS VL: DIVMTQSPLSLPVTPGEPASISCQASQEHVHMNRNTYLHWYQQKPGQAPRLLIYKVSNRFPGVPDRFSGSGSGTDFTLKISRVEAEDVGVYYCAQGTSVPFTFGQGTKLEIK | 0.3 |
| H183/L072 VL L27bF (antibody, name in Kabat numbering, V domains shown, Dual-Ig) VH: QVQLVESGGGLVQPGRSLRLSCAASGFTFSNAWMHWVRQAPGKGLEWVAQIKDKGNAYAAYYAPSVKGRFTISRDDSKNSIYLQMNSLKTEDTAVYYCHYVHYASASTVLPAFGVDAWGQGTTVTVSS VL: DIVMTQSPLSLPVTPGEPASISCQASQEFVHMNRNTYLHWYQQKPGQAPRLLIYKVSNRFPGVPDRFSGSGSGTDFTLKISRVEAEDVGVYYCAQGTSVPFTFGQGTKLEIK | 0.3 |
| H183/L072 VL K50H (antibody, name in Kabat numbering, V domains shown, Dual-Ig) VH: QVQLVESGGGLVQPGRSLRLSCAASGFTFSNAWMHWVRQAPGKGLEWVAQIKDKGNAYAAYYAPSVKGRFTISRDDSKNSIYLQMNSLKTEDTAVYYCHYVHYASASTVLPAFGVDAWGQGTTVTVSS VL: DIVMTQSPLSLPVTPGEPASISCQASQELVHMNRNTYLHWYQQKPGQAPRLLIYHVSNRFPGVPDRFSGSGSGTDFTLKISRVEAEDVGVYYCAQGTSVPFTFGQGTKLEIK | 0 |
| H183/L072 VL K50S (antibody, name in Kabat numbering, V domains shown, Dual-Ig) VH: QVQLVESGGGLVQPGRSLRLSCAASGFTFSNAWMHWVRQAPGKGLEWVAQIKDKGNAYAAYYAPSVKGRFTISRDDSKNSIYLQMNSLKTEDTAVYYCHYVHYASASTVLPAFGVDAWGQGTTVTVSS VL: DIVMTQSPLSLPVTPGEPASISCQASQELVHMNRNTYLHWYQQKPGQAPRLLIYSVSNRFPGVPDRFSGSGSGTDFTLKISRVEAEDVGVYYCAQGTSVPFTFGQGTKLEIK | 0 |
| H183/L072 VL K50V (antibody, name in Kabat numbering, V domains shown, Dual-Ig) VH: QVQLVESGGGLVQPGRSLRLSCAASGFTFSNAWMHWVRQAPGKGLEWVAQIKDKGNAYAAYYAPSVKGRFTISRDDSKNSIYLQMNSLKTEDTAVYYCHYVHYASASTVLPAFGVDAWGQGTTVTVSS VL: DIVMTQSPLSLPVTPGEPASISCQASQELVHMNRNTYLHWYQQKPGQAPRLLIYVVSNRFPGVPDRFSGSGSGTDFTLKISRVEAEDVGVYYCAQGTSVPFTFGQGTKLEIK | 0.3 |
| H183/L072 VL K50M (antibody, name in Kabat numbering, V domains shown, Dual-Ig) VH: QVQLVESGGGLVQPGRSLRLSCAASGFTFSNAWMHWVRQAPGKGLEWVAQIKDKGNAYAAYYAPSVKGRFTISRDDSKNSIYLQMNSLKTEDTAVYYCHYVHYASASTVLPAFGVDAWGQGTTVTVSS VL: DIVMTQSPLSLPVTPGEPASISCQASQELVHMNRNTYLHWYQQKPGQAPRLLIYMVSNRFPGVPDRFSGSGSGTDFTLKISRVEAEDVGVYYCAQGTSVPFTFGQGTKLEIK | 2.9 |
| H183/L072 VL K50N (antibody, name in Kabat numbering, V domains shown, Dual-Ig) VH: QVQLVESGGGLVQPGRSLRLSCAASGFTFSNAWMHWVRQAPGKGLEWVAQIKDKGNAYAAYYAPSVKGRFTISRDDSKNSIYLQMNSLKTEDTAVYYCHYVHYASASTVLPAFGVDAWGQGTTVTVSS VL: DIVMTQSPLSLPVTPGEPASISCQASQELVHMNRNTYLHWYQQKPGQAPRLLIYNVSNRFPGVPDRFSGSGSGTDFTLKISRVEAEDVGVYYCAQGTSVPFTFGQGTKLEIK | 0.4 |
| H183/L072 VL K50I (antibody, name in Kabat numbering, V domains shown, Dual-Ig) VH: QVQLVESGGGLVQPGRSLRLSCAASGFTFSNAWMHWVRQAPGKGLEWVAQIKDKGNAYAAYYAPSVKGRFTISRDDSKNSIYLQMNSLKTEDTAVYYCHYVHYASASTVLPAFGVDAWGQGTTVTVSS VL: DIVMTQSPLSLPVTPGEPASISCQASQELVHMNRNTYLHWYQQKPGQAPRLLIYIVSNRFPGVPDRFSGSGSGTDFTLKISRVEAEDVGVYYCAQGTSVPFTFGQGTKLEIK | 2.5 |
| H183/L072 VL K50L (antibody, name in Kabat numbering, V domains shown, Dual-Ig) VH: QVQLVESGGGLVQPGRSLRLSCAASGFTFSNAWMHWVRQAPGKGLEWVAQIKDKGNAYAAYYAPSVKGRFTISRDDSKNSIYLQMNSLKTEDTAVYYCHYVHYASASTVLPAFGVDAWGQGTTVTVSS VL: DIVMTQSPLSLPVTPGEPASISCQASQELVHMNRNTYLHWYQQKPGQAPRLLIYLVSNRFPGVPDRFSGSGSGTDFTLKISRVEAEDVGVYYCAQGTSVPFTFGQGTKLEIK | 1 |
| H183/L072 VL K50R (antibody, name in Kabat numbering, V domains shown, Dual-Ig) VH: QVQLVESGGGLVQPGRSLRLSCAASGFTFSNAWMHWVRQAPGKGLEWVAQIKDKGNAYAAYYAPSVKGRFTISRDDSKNSIYLQMNSLKTEDTAVYYCHYVHYASASTVLPAFGVDAWGQGTTVTVSS VL: DIVMTQSPLSLPVTPGEPASISCQASQELVHMNRNTYLHWYQQKPGQAPRLLIYRVSNRFPGVPDRFSGSGSGTDFTLKISRVEAEDVGVYYCAQGTSVPFTFGQGTKLEIK | 1.7 |
| H183/L072 VL L27bG (antibody, name in Kabat numbering, V domains shown, Dual-Ig) VH: QVQLVESGGGLVQPGRSLRLSCAASGFTFSNAWMHWVRQAPGKGLEWVAQIKDKGNAYAAYYAPSVKGRFTISRDDSKNSIYLQMNSLKTEDTAVYYCHYVHYASASTVLPAFGVDAWGQGTTVTVSS VL: DIVMTQSPLSLPVTPGEPASISCQASQEGVHMNRNTYLHWYQQKPGQAPRLLIYKVSNRFPGVPDRFSGSGSGTDFTLKISRVEAEDVGVYYCAQGTSVPFTFGQGTKLEIK | 0.1 |
| H183/L072 VL K50T (antibody, name in Kabat numbering, V domains shown, Dual-Ig) VH: QVQLVESGGGLVQPGRSLRLSCAASGFTFSNAWMHWVRQAPGKGLEWVAQIKDKGNAYAAYYAPSVKGRFTISRDDSKNSIYLQMNSLKTEDTAVYYCHYVHYASASTVLPAFGVDAWGQGTTVTVSS VL: DIVMTQSPLSLPVTPGEPASISCQASQELVHMNRNTYLHWYQQKPGQAPRLLIYTVSNRFPGVPDRFSGSGSGTDFTLKISRVEAEDVGVYYCAQGTSVPFTFGQGTKLEIK | 0.2 |
| H183/L072 VL L27bD (antibody, name in Kabat numbering, V domains shown, Dual-Ig) VH: QVQLVESGGGLVQPGRSLRLSCAASGFTFSNAWMHWVRQAPGKGLEWVAQIKDKGNAYAAYYAPSVKGRFTISRDDSKNSIYLQMNSLKTEDTAVYYCHYVHYASASTVLPAFGVDAWGQGTTVTVSS VL: DIVMTQSPLSLPVTPGEPASISCQASQEDVHMNRNTYLHWYQQKPGQAPRLLIYKVSNRFPGVPDRFSGSGSGTDFTLKISRVEAEDVGVYYCAQGTSVPFTFGQGTKLEIK | 0.2 |
| H183/L072 VL K50P (antibody, name in Kabat numbering, V domains shown, Dual-Ig) VH: QVQLVESGGGLVQPGRSLRLSCAASGFTFSNAWMHWVRQAPGKGLEWVAQIKDKGNAYAAYYAPSVKGRFTISRDDSKNSIYLQMNSLKTEDTAVYYCHYVHYASASTVLPAFGVDAWGQGTTVTVSS VL: DIVMTQSPLSLPVTPGEPASISCQASQELVHMNRNTYLHWYQQKPGQAPRLLIYPVSNRFPGVPDRFSGSGSGTDFTLKISRVEAEDVGVYYCAQGTSVPFTFGQGTKLEIK | 0 |
